Data on three substances can be found in patent publication US20210355185A1.

The target in this assay is IL-12 receptors (human) (UniProt P42701). The experiment in a line: cell-based or functional assay.
Chain of IL-12 receptors (human) (Q99665 24-862, chain 2 of 2, other chains not shown): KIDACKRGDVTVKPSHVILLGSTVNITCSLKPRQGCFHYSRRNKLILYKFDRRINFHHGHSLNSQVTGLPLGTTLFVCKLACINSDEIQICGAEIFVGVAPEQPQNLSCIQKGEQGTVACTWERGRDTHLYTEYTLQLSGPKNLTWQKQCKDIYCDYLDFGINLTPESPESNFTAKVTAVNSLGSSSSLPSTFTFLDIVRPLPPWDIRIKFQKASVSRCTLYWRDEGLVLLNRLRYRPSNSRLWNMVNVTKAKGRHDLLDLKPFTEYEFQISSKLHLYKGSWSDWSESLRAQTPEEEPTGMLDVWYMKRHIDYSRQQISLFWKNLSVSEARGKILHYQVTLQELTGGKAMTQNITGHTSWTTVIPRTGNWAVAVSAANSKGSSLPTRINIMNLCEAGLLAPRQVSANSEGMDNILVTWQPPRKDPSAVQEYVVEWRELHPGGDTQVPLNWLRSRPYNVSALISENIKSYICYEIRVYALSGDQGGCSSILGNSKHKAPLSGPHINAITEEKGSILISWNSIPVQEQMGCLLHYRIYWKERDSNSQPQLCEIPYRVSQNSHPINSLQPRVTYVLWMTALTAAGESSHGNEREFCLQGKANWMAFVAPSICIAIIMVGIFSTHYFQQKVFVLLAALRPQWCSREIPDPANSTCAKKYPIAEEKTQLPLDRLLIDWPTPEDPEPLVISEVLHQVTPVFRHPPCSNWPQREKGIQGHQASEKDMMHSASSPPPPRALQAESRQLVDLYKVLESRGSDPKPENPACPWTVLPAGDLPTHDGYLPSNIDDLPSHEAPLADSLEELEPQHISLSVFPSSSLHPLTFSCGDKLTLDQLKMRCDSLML

“IL-12-Fc fusion comprising IL-12p35(D55Q/N151D) (from UniProt P29460 23-328; P29459 23-219)” had a reduction in potency (EC50 for STAT4 phosphorylation) relative to WT IL-12-Fc XENP27201 of 2 fold.
To “IL-12-Fc fusion comprising IL-12p35(E153Q) (from UniProt P29460 23-328; P29459 23-219)” belongs more than 2 fold.
To “IL-12-Fc fusion comprising IL-12p40(E235Q) (from UniProt P29460 23-328; P29459 23-219)” belongs more than 2 fold.
